Laboratory results published in patent US10287521B2, “Enzymatic removal of steryl glycosides” (KECLON S.A., priority 2012, dated 2019).

Columns and labels:
[1] = Steryl glycoside hydrolysis in distilled biodiesel/water mixture (Example 5); assay type: biochemical
Description: Steryl glycosidase activity is measured as follows: • a) Prepare a stock solution of steryl glycoside by dissolving 10 milligrams (mg) of steryl glycoside in 1 milliliter (ml) of a 3:1 mixture of tetrahydrofuran:water. • b) Add the steryl glycoside to a final concentration of 100 microgram per milliliter (μg/ml) in 1 ml of a reaction mixture containing 50 millimolar (mM) Phosphate buffer pH 6.5 and 5 μg of steryl glycosidase in an Eppendorf tube. • c) Place the reaction mixture on a shaker incubator and incubate at 80° C. for 4 h. • d) Extract the reaction mixture with 1 ml of ethyl acetate and evaporate to dryness under vacuum. • e) Re-dissolve the sample in 10 microliter (μl) of ethyl acetate • f) Analyze by thin layer chromatography (TLC) the presence of free sterols, generated as a result of steryl glycoside hydrolysis after the enzymatic treatment, using Hexane:Methanol 85:15 as running buffer and develop with ρ-anisaldehide • d) Alternatively, analyze 50 μl sample of the reaction mixture for the presence of glucose using an assay based on the Hexokinase/Glucose 6-P-dehydrogenase method: the glucose generated by steryl glycoside hydrolisis is converted by Hexokinase (or Glucokinase) into glucose 6-phosphate. Glucose 6-phosphate is further oxidized by Glucose 6-P dehydrogenase, simultaneously reducing NADP+ to NADPH. The NADPH generated is detected by fluorescence (λex: 338 nm, λem: 461 nm) and allows detection of glucose levels below 1 ppm. The assay can be adapted to microplates scale and detected in a Synergy microplate reader.
The following is an example of how to use a steryl glycosidase to remove steryl glycosides from a biodiesel mixture: • a) A 42.5 ml distilled biodiesel sample containing 100 ppm of steryl glycosides is mixed with 7.5 ml of a water solution containing 50 mM Phosphate buffer pH 6.5 and 300 μg of steryl glycosidase. […]

[2] = Steryl glycoside hydrolysis in crude biodiesel (Example 6); assay type: biochemical; settings: about 70 ppm steryl glycosides, 8 mg enzyme, 80° C., in 3 h

Row | Molecule | steryl glycoside hydrolysis, dependence on emulsifier ([1]; distilled biodiesel/water, 80° C., with or without 5% ADMUL emulsifier) | steryl glycoside hydrolysis compared with LacS ([1]; Bio/water+ADMUL emulsions, data not shown) | steryl glycoside hydrolysis ([1]; without the addition of any emulsifier, in 3 h, 80° C.) [%] | steryl glycoside hydrolysis in crude biodiesel [2]
1 | LacS: steryl glycosidase LacS from S. solfataricus (SEQ ID NO.: 2) (protein, listed as Sulfolobus solfataricus) MYSFPNSFRFGWSQAGFQSEMGTPGSEDPNTDWYKWVHDPENMAAGLVSGDLPENGPGYWGNYKTFHDNAQKMGLKIARLNVEWSRIFPNPLPRPQNFDESKQDVTEVEINENELKRLDEYANKDALNHYREIFKDLKSRGLYFILNMYHWPLPLWLHDPIRVRRGDFTGPSGWLSTRTVYEFARFSAYIAWKFDDLVDEYSTMNEPNVVGGLGYVGVKSGFPPGYLSFELSRRAMYNIIQAHARAYDGIKSVSKKPVGIIYANSSFQPLTDKDMEAVEMAENDNRWWFFDAIIRGEITRGNEKIVRDDLKGRLDWIGVNYYTRTVVKRTEKGYVSLGGYGHGCERNSVSLAGLPTSDFGWEFFPEGLYDVLTKYWNRYHLYMYVTENGIADDADYQRPYYLVSHVYQVHRAINSGADVRGYLHWSLADNYEWASGFSMRFGLLKVDYNTKRLYWRPSALVYREIATNGAITDEIEHLNSVPPVKPLRH | could only exhibit steryl glycoside hydrolisis when reactions were performed in the presence of ADMUL™ |  |  | 
2 | TL: steryl glycosidase TL from T. litoralis (SEQ ID NO.: 17) (protein, listed as Thermococcus litoralis) FPEKFLFGTSTAAHQVEGDNRWNDWWYYEEIGKLPYKSGKACNHWGLYREDIELMAQLGYNAYRFSIEWSRLFPEEGKFNEDAFNRYREIIELLLEKGITPNVTLHHFTSPLWFMRKGGFLKEENLKYWEKYVDKAAELLKGVKLVATFNEPMVYVMMGYLTAYWPPFVKSPFKAFKVAANLLKAHAMAYDILHGNFDVGIVKNIPIMLPASNREKDIKAAQKADNLFNWNFLDAIWSGKYKGAFGTYKTPESDVDFIGINYYTASEVRHSWNPLKFFFDAKLADLSERKTDMGWSVYPKGIYEAIAKVSRYGKPMYITENGIATLEDEWRIEFIIQHLQYVHKALNDGFDLRGYFYWSFMDNYEWAEGFRPRFGLVEVDYTTFERRPRKSGYVYGEIAREKKIKDELLAKYGLPEL |  | higher and faster hydrolysis | ~100 | could completely hydrolize steryl glycosides
